Data set [1] deals with CBD-TEVrs-bglA (N-terminal His-tagged chitin binding domain, TEVrs ENLYFQG, 6-phospho-β-glucosidase A).
Data set [2] addresses MBP5-TEV-paramyosin ΔSal (maltose binding protein domain and a paramyosin fragment linked by a TEV protease recognition sequence).

This note sets out measurements from patent US20260234592.

“Also recorded” adds a separate entry of the source.

B1: R49A_L76P variant TEV protease (triple variant further comprising R49A and L76P), expressed in vivo (protein)
chain: GESLFKGPRDYNPISSTICHLTNESDGHTTSLYGIGFGPFIITNKHLFARNNGTLVVQSLHGVFKVKNTTTLQQHPIDGRDMIIIRMPKDFPPFPQKLKFREPQREERICLVTTNFQTKSMSSMVSDTSCTFPSGDGIFWKHWIQTKDGQCGSPLVSTRDGFIVGIHSASNFTNTNNYFTSVPKNFMELLTNQEAQQWVSGWRLNADSVLWGGHKVFMVKPEEPFQPVKEATQLMNE
B1: the “CBD-TEVrs-bglA cleavage over time at 30° C.” value in data set [1] was “all variants performed better that the control”.

B2: R49G_L76P variant TEV protease (triple variant further comprising R49G and L76P), expressed in vivo (protein)
chain: GESLFKGPRDYNPISSTICHLTNESDGHTTSLYGIGFGPFIITNKHLFGRNNGTLVVQSLHGVFKVKNTTTLQQHPIDGRDMIIIRMPKDFPPFPQKLKFREPQREERICLVTTNFQTKSMSSMVSDTSCTFPSGDGIFWKHWIQTKDGQCGSPLVSTRDGFIVGIHSASNFTNTNNYFTSVPKNFMELLTNQEAQQWVSGWRLNADSVLWGGHKVFMVKPEEPFQPVKEATQLMNE
Take B2: the “CBD-TEVrs-bglA cleavage over time at 30° C.” value in data set [1] was “all variants performed better that the control”.

B3: R49L_L76P variant TEV protease (triple variant further comprising R49L and L76P), expressed in vivo (protein)
chain: GESLFKGPRDYNPISSTICHLTNESDGHTTSLYGIGFGPFIITNKHLFLRNNGTLVVQSLHGVFKVKNTTTLQQHPIDGRDMIIIRMPKDFPPFPQKLKFREPQREERICLVTTNFQTKSMSSMVSDTSCTFPSGDGIFWKHWIQTKDGQCGSPLVSTRDGFIVGIHSASNFTNTNNYFTSVPKNFMELLTNQEAQQWVSGWRLNADSVLWGGHKVFMVKPEEPFQPVKEATQLMNE
Regarding B3, the “CBD-TEVrs-bglA cleavage over time at 30° C.” value in data set [1] is on record as “all variants performed better that the control”.

B4: R49I_L76P variant TEV protease (triple variant further comprising R49I and L76P), expressed in vivo (protein)
chain: GESLFKGPRDYNPISSTICHLTNESDGHTTSLYGIGFGPFIITNKHLFIRNNGTLVVQSLHGVFKVKNTTTLQQHPIDGRDMIIIRMPKDFPPFPQKLKFREPQREERICLVTTNFQTKSMSSMVSDTSCTFPSGDGIFWKHWIQTKDGQCGSPLVSTRDGFIVGIHSASNFTNTNNYFTSVPKNFMELLTNQEAQQWVSGWRLNADSVLWGGHKVFMVKPEEPFQPVKEATQLMNE
For B4, in data set [1], the “CBD-TEVrs-bglA cleavage over time at 30° C.” value is “all variants performed better that the control”.

B5: R49V variant TEV protease (N-terminal His tag; R49V, L56V, S135G, S219V) (protein)
chain: GHHHHHHHGESLFKGPRDYNPISSTICHLTNESDGHTTSLYGIGFGPFIITNKHLFVRNNGTLVVQSLHGVFKVKNTTTLQQHLIDGRDMIIIRMPKDFPPFPQKLKFREPQREERICLVTTNFQTKSMSSMVSDTSCTFPSGDGIFWKHWIQTKDGQCGSPLVSTRDGFIVGIHSASNFTNTNNYFTSVPKNFMELLTNQEAQQWVSGWRLNADSVLWGGHKVFMVKPEEPFQPVKEATQLMNE
Turning to B5, in data set [1], the “CBD-TEVrs-bglA cleavage over time at 30° C. and 20° C.” value is listed as “showed slightly weaker activity than control TEV protease”; the Ratio kR49V/kcontrol = (kcat/KM)R49V/(kcat/KM)control is 2; the “Slope of ln(1-(cleavage ratio)) against the concentration of TEV protease, 4° C., 18 hours” value (“Slope of ln(1-(cleavage ratio))” below) is on record as “y = -11.281x - 0.2037”.

B6: control TEV protease (TEV protease triple variant L56V, S135G, S219V with N-terminal His tag) (protein)
chain: GHHHHHHHGESLFKGPRDYNPISSTICHLTNESDGHTTSLYGIGFGPFIITNKHLFRRNNGTLVVQSLHGVFKVKNTTTLQQHLIDGRDMIIIRMPKDFPPFPQKLKFREPQREERICLVTTNFQTKSMSSMVSDTSCTFPSGDGIFWKHWIQTKDGQCGSPLVSTRDGFIVGIHSASNFTNTNNYFTSVPKNFMELLTNQEAQQWVSGWRLNADSVLWGGHKVFMVKPEEPFQPVKEATQLMNE
For the protein B6, in data set [1], the “protease concentration that reaches almost 100% cleavage, 4° C., 18 hours” value is reported as 2 µM of the control TEV protease was needed to reach the same mark; the “substrate cleaved, 0° C., 18 hours” value was “the control TEV protease cleaved 64% of the substrate”; the “substrate cleaved, 4° C., 18 hours” value was “Control TEV protease cleaved the substrate by 73%; also recorded: the control TEV protease cleaved 77% of the substrate”.

B7: R49V_L76P variant TEV protease (N-terminal His tag; R49V, L56V, L76P, S135G, S219V) (protein)
chain: GHHHHHHHGESLFKGPRDYNPISSTICHLTNESDGHTTSLYGIGFGPFIITNKHLFVRNNGTLVVQSLHGVFKVKNTTTLQQHPIDGRDMIIIRMPKDFPPFPQKLKFREPQREERICLVTTNFQTKSMSSMVSDTSCTFPSGDGIFWKHWIQTKDGQCGSPLVSTRDGFIVGIHSASNFTNTNNYFTSVPKNFMELLTNQEAQQWVSGWRLNADSVLWGGHKVFMVKPEEPFQPVKEATQLMNE
As to B7, in data set [1], the “CBD-TEVrs-bglA cleavage over time at 30° C.” value was “all variants performed better that the control”; the “CBD-TEVrs-bglA cleavage over time at 30° C. and 20° C.” value is on record as “the R49V_L76P variant showed higher activity than L76P variant”; the Ratio kR49V-L76P/kcontrol = (kcat/KM)R49V-L76P/(kcat/KM)control came to 1.5; the “Slope of ln(1-(cleavage ratio))” value was “y = -11.117x - 0.0916”. For the same protein, in data set [1], the “protease concentration that reaches almost 100% cleavage, 4° C., 18 hours” value was “the R49V_L76P variant reached almost 100% cleavage at 0.5 µM” and the “substrate cleaved, 4° C., 18 hours” value is recorded as “R49V_L76P variant cleaved the substrate by 94%”.

B8: R49F_L76P variant TEV protease (N-terminal His tag; R49F, L56V, L76P, S135G, S219V) (protein)
chain: GHHHHHHHGESLFKGPRDYNPISSTICHLTNESDGHTTSLYGIGFGPFIITNKHLFFRNNGTLVVQSLHGVFKVKNTTTLQQHPIDGRDMIIIRMPKDFPPFPQKLKFREPQREERICLVTTNFQTKSMSSMVSDTSCTFPSGDGIFWKHWIQTKDGQCGSPLVSTRDGFIVGIHSASNFTNTNNYFTSVPKNFMELLTNQEAQQWVSGWRLNADSVLWGGHKVFMVKPEEPFQPVKEATQLMNE
B8: in data set [2], the “cleavage of the substrate, 4° C., 1 hour” value was “The variant protease achieved 85% cleavage in just 1 hour at 4 °C”; the “cleavage of the substrate, 4° C., 3 hours” value is listed as “The variant TEV protease cleaved 98% of the substrate in 3 hours”; the “cleavage of the substrate, 4° C., 5 hours” value amounted to 99% in 5 hours. Besides, in data set [1], the “CBD-TEVrs-bglA cleavage over time at 30° C.” value is “all variants performed better that the control with the R49F_L76P variant (SEQ ID NO: 11) displaying the highest activity”; the Ratio kR49F-L76P/kcontrol = (kcat/KM)R49F-L76P/(kcat/KM)control is 2.6; the “Slope of ln(1-(cleavage ratio))” value is on record as “y = -13.518x - 0.0413”; the “protease concentration that reaches almost 100% cleavage, 4° C., 18 hours” value is on record as “the R49F_L76P variant reached almost 100% cleavage at 0.5 µM”. Further, in data set [1], the “substrate cleaved, 0° C., 18 hours” value is listed as “the R49F_L76P variant cleaved 86% of the substrate” and the “substrate cleaved, 4° C., 18 hours” value is recorded as “the R49F_L76P variant cleaved 97% of the substrate”.

B9: L76P variant TEV protease (N-terminal His tag; L56V, L76P, S135G, S219V) (protein)
chain: GHHHHHHHGESLFKGPRDYNPISSTICHLTNESDGHTTSLYGIGFGPFIITNKHLFRRNNGTLVVQSLHGVFKVKNTTTLQQHPIDGRDMIIIRMPKDFPPFPQKLKFREPQREERICLVTTNFQTKSMSSMVSDTSCTFPSGDGIFWKHWIQTKDGQCGSPLVSTRDGFIVGIHSASNFTNTNNYFTSVPKNFMELLTNQEAQQWVSGWRLNADSVLWGGHKVFMVKPEEPFQPVKEATQLMNE
Take B9: in data set [1], the “CBD-TEVrs-bglA cleavage over time at 30° C. and 20° C.” value is “At both temperatures, the L76P variant showed higher activity than control TEV protease”; the Ratio kL76P/kcontrol = (kcat/KM)L76P/(kcat/KM)control came out at 1.7; the “Slope of ln(1-(cleavage ratio))” value is listed as “y = -13.611x - 0.0596”; the “substrate cleaved, 0° C., 18 hours” value was “the L76P variant cleaved 75% of the substrate”. For the same protein, the “substrate cleaved, 4° C., 18 hours” value in data set [1] is “the L76P variant cleaved 87% of the substrate”.
